Source: patent publication US20250320269A1 (ALBERT EINSTEIN COLLEGE OF MEDICINE, published 2025)

T1: Mouse B7-H3 (mouse, UniProt Q8VE98 29-244, limits assumed)
T1 construct: also called mouse B7-H3 protein
T1 sequence (looked up): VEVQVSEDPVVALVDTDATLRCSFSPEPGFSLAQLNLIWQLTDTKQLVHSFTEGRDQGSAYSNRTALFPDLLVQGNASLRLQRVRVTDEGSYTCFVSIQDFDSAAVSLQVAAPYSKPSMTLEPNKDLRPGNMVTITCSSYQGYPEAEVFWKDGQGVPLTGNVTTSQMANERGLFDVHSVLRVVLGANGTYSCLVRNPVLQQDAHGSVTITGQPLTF

T2: Human B7-H3 (human, UniProt Q5ZPR3 29-461, limits assumed)
T2 construct: also called human B7-H3 protein; CD276
T2 sequence (looked up): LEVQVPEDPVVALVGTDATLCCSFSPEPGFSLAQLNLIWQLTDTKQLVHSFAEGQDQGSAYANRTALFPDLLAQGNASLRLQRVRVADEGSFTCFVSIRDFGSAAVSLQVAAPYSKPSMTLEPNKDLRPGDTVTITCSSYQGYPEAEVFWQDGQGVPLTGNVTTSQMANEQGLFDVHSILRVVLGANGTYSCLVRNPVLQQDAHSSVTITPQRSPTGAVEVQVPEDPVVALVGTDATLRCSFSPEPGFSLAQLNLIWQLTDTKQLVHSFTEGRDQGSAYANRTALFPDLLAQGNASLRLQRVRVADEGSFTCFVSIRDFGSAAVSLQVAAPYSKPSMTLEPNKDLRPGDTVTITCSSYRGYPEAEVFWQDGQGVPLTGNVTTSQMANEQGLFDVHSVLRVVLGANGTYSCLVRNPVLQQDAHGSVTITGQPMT

B1: 24D12 mAb (antibody, V domains shown)
VH: QVQLQQPGAELVKPGASVKLSCKASGYTFTSYWMHWVKQRPGQGLEWIGMIHPNSGSTNYNEKFKSKATLTVDKSSSTAYMQLSSLTSEDSAVYYCANYYGTNVWGTGTTVTVS
VL: DIVLTQSPASLAVSLGQRATISYRASKSVSTSGYSYMHWNQQKPGQPPRLLIYLVSNLESGVPARFSGSGSGTDFTLNIHPVEEEDAATYYCQHIREAYTFGRG
B2: 23B2 mAb (antibody, V domains shown)
VH: QVQLQQPGAELVKPGASVKLSCKASGYTFTSYWMHWVKQRPGQGLEWIGMIHPNSGSTNYNEKFKSKATLTVDKSSSTAYMQLSSLTSEDSAVYYCARESRQLDYWGQGTTLTVSS
VL: QIVLTQSPAIMSASPGEKVTMTCSASSSISYMHWYQQKPGTSPKRWIYDTSKLASGVPARFSGSGSGTSYSLTISSMEAEDAATYYCHQRSSYPLTFGAGTKLELK
notes: Mouse hybridoma mAb, IgG1 with kappa chain; also called 231B2
B3: 1G5 mAb (antibody, V domains shown)
VH: QVQLQQPGAELVKPGASVKLSCKASGYTFTSYWMHWVKQRPGQGLEWIGMIHPNSGSTNYNEKFKSKATLTVDKSSSTAYMQLSSLTSEDSAVYYCARGGYFDYWGQGTTLTVSS
VL: DIVMTQSQKFMSTSVGDRVSVTCKASQNVGTNVAWYQQKPGQSPKALIYSASYRYSGVPDRFTGSGSGTDFTLTISNVQSEDLAEYFCQQYNSYPYTFGGGTKLEIKR
notes: Mouse hybridoma mAb, IgG3 with kappa chain
B4: 15F9 mAb (antibody, V domains shown)
VH: QVQLQQPGAELVKPGASVKLSCKASGYTFTNYWMHWVKQRPGQGLEWIGMIHPNSGSTNYNEKFKSKATLTVDKSSSTAYMQLSSLTSEDSAVYYCARRGDGDYWGQGTTLTVSS
VL: DIQMTRHPSSLSASMGERVSLTCRASQEISGYLSWLQQKPDGTIKRLIYAASTLDSGVPKRFSGSRSGSDYSLTISSLESEDFADYYCLQYASYPYTFGGGTKLEI
notes: as for B3
B5: 8B12 mAb (antibody, V domains shown)
VH: QVQLQQPGAELVKPGASVKMSCKASGYTFTSYWITWVKQRPGQGLEWIGDIYPGSGSTNYNEKFKSKATLTVDTSSSTAYMQLSSLTSEDSAVYYCARGGTRFSPFAYWGQGTLVTVSA
VL: DVLMTQTPLSLPVSLGDQASISCRSSQSIVHSNGNTYLEWYLQKPGQSPKLLIYKVSNRFSGVPDRFSGSGSGTDFTLKISRVEAEDLGVYYCFQGSHVPWTFGGGTKLEIKR
notes: Mouse hybridoma mAb, IgG3 with kappa chain; also called 8K12; 81812
B6: 12B4 mAb (antibody, V domains shown)
VH: QVQLQQPGAELVKPGASVKLSCKASGYTFTSYWMHWVKQRPGQGLEWIGMIHPNSGSTNYNEKFKSKATLTVDKSSSTAYMQLSSLTSEDSAVYYCARYYYGSSYAMDYWGQGTSVTVS
VL: QIVLTQSPAIMSASPGEKVTITCSASSSVSYMHWFQQKPGTSPKLWIYSTSNLASGVPARFSGSGSGTSYSLTISRMEAEDAATYYCQQRSSYPYTFGGGTKLEIKR
notes: Mouse hybridoma mAb, IgG3 with kappa chain; also called 124; 1214

How the values were obtained:
[1] = biological target: T1, Mouse B7-H3; test: surface plasmon resonance
[2] = biological target: T2, Human B7-H3; test: surface plasmon resonance

| Binder | Kd [1] | Kd [2] |
| --- | --- | --- |
| B1 | 1.76 nM | 4.51 nM |
| B2 | 10.2 nM | 11.1 nM |
| B3 | 0.81 nM | 4.86 nM |
| B4 | 1.76 nM | 4.51 nM |
| B5 | 4.01 nM | 0.32 nM |
| B6 | 1.71 nM | 5.62 nM |
